In the supplement of paper PMC9732359:
± gives the uncertainty stated by the source.

Assay: protein stability index of a GFP-peptide fusion (yeast GPS) (PSI 1-4); higher = more stable; sorted into four equal gates, so the index is relative within each strain
Summary of the method: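 Sequencing reads from sorted gates were used to score each peptide. The library consisted of tiled 17-residue yeast protein peptides fused downstream of GFP on a Cherry-expressing plasmid, pooled and carried in yeast. Mid-log cultures in leucine-free medium were split into four equal gates by GFP/Cherry ratio, and each gate's plasmids were PCR-amplified and Illumina-sequenced. The protein stability index adds up, over all gates, the read frequency multiplied by the gate number.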

Row | Sequence | protein stability index (doa10∆) | protein stability index (pdr5∆) | protein stability index (san1∆) | protein stability index (ubr1∆)
1 | QLYEDLCRYEDTLSKLV [MED4] | 2.62 ± 0.097 | 2.67 ± 0.16 | 2.75 ± 0.27 | 3.25 ± 0.09
2 | KIMPKDILQITKKPLMV [SIR4] | 2.62 ± 0.088 | 2.79 ± 0.17 | 2.32 ± 0.1 | 2.56 ± 0.09
3 | SVDICNNSKSRYPMNLL [ECM29] | 1.86 ± 0.1 | 2.35 ± 0.056 | 2.71 ± 0.077 | 1.31 ± 0.079
4 | MNGNGKPGIPRGNTKIH [SIR3] |  | 2.83 ± 0.23 | 3.32 ± 0.094 | 3.25 ± 0.18
5 | MRFNIEIIADWIWDMNV [BRR2] | 2.61 ± 0.066 | 2.12 ± 0.075 | 2.7 ± 0.088 | 2.39 ± 0.041
6 | SNTYKEERSNNLLTPQP [MCD1] | 2.76 ± 0.078 | 3.18 ± 0.094 | 3.01 ± 0.046 | 3.2 ± 0.051
7 | KVISEILTKEVQGSTLA [RPS1A] | 2.29 ± 0.026 | 2.336 ± 0.023 | 2.29 ± 0.03 | 2.194 ± 0.018
8 | EVCAKMPNIELYLKVIP [SSN2] | 2.71 ± 0.047 | 2.51 ± 0.045 | 2.48 ± 0.052 | 2.26 ± 0.039
9 | INLRKVAEKMNGCSGAD [RPT6] | 2.45 ± 0.15 | 2.25 ± 0.28 | 2.38 ± 0.13 | 3.07 ± 0.29
10 | SSLALVFALHKYKPTPL [SMC4] | 2.18 ± 0.052 | 2.18 ± 0.074 | 2.17 ± 0.088 | 2.93 ± 0.055
11 | HGYFLQDKEKIDNLKDT [ITC1] | 3.18 ± 0.072 | 3.41 ± 0.069 | 3.24 ± 0.057 | 3.42 ± 0.057
12 | ERNEQEREIMNDHSKSA [SWI3] | 3.27 ± 0.069 | 3.33 ± 0.066 | 3.1 ± 0.092 | 3.48 ± 0.084
13 | SSISVMGENEKPDVTYA [RPT3] | 2.92 ± 0.2 | 3.25 ± 0.1 | 3.12 ± 0.11 | 3.27 ± 0.083
14 | NVKNDVSFNDSQSMVTN [YIL149C/MLP2] | 3.1 ± 0.054 | 3.37 ± 0.081 | 3.07 ± 0.067 | 3.3 ± 0.04
15 | TGWITQSTPVLLNHGER [RPN1] | 2.61 ± 0.061 | 2.23 ± 0.044 | 1.88 ± 0.056 | 2.53 ± 0.037
16 | LIEKLQGFSKDTFELIK [YDL116W/NUP84] | 3.21 ± 0.12 | 3.22 ± 0.093 | 3.29 ± 0.064 | 3.08 ± 0.07
17 | LRDDTLPKAWISLAVEG [COR1] | 2.55 ± 0.059 | 1.9 ± 0.08 | 1.78 ± 0.12 | 1.44 ± 0.037
18 | TFNSKPVRTIVPISTSQ [SIR4] | 2.32 ± 0.037 | 2.46 ± 0.037 | 2.42 ± 0.039 | 2.35 ± 0.028
19 | FFTIDHFIQKLHTARKI [SIR2] | 1.75 ± 0.09 | 1.71 ± 0.1 | 1.11 ± 0.12 | 1.37 ± 0.12
20 | ILKEEFPKIDSLAQNDC [RPN5] | 3.19 ± 0.15 | 3.24 ± 0.091 | 3.22 ± 0.056 | 3.38 ± 0.065
21 | HLMSWSKTGIIAYSDSQ [SIN4] | 1.63 ± 0.11 | 1.59 ± 0.15 | 1.32 ± 0.12 | 2.2 ± 0.2
22 | PGYVDIVKTSSGNEMPP [RPS19A] | 2.67 ± 0.19 | 2.86 ± 0.11 | 2.84 ± 0.11 | 3.11 ± 0.088
23 | ENENILIKAKNFLVFQG [SMC1] | 1.22 ± 0.094 | 1.25 ± 0.12 | 1.96 ± 0.22 | 1.17 ± 0.11
24 | ESISQTPISNEQTEGEP [SRP68] | 3.21 ± 0.1 | 3.29 ± 0.16 | 3.16 ± 0.071 | 3.19 ± 0.065
25 | TNKSKRPSITEAMMLKE [MED1] | 2.91 ± 0.12 | 3.03 ± 0.087 | 2.89 ± 0.094 | 3.03 ± 0.084
26 | GTSLTIQHIAAAMVPFI [CDC53] | 2.75 ± 0.05 | 2.91 ± 0.046 | 2.6 ± 0.066 | 3.03 ± 0.043

Row | Sequence | protein stability index (doa10∆) | protein stability index (pdr5∆) | protein stability index (san1∆) | protein stability index (ubr1∆)
27 | RAIRSEKYGKQVYDLLK [BRR2] |  |  | 2.94 ± 0.18 | 3.26 ± 0.13
28 | LICQNNLNAFVDFSKYN [SRP72] | 3.1 ± 0.077 | 2.99 ± 0.063 | 3.11 ± 0.044 | 2.54 ± 0.061
29 | QLGPQTPAFNTAILQRQ [ECM29] | 1.39 ± 0.21 | 1.49 ± 0.17 | 1.41 ± 0.17 | 1.67 ± 0.21
30 | TKQASSFSFLNRADGTG [YLR335W/NUP2] |  |  |  | 1.45 ± 0.2
31 | MNNQPQGTNSVPNSIGN [SNF5] | 2.87 ± 0.074 | 3.1 ± 0.096 | 3.04 ± 0.12 | 2.92 ± 0.055
32 | NDRNPRLNENKKIGCYM [CSN12] | 3.04 ± 0.069 | 3.22 ± 0.072 | 3.12 ± 0.051 | 3.26 ± 0.065
33 | EKESDDGLLEYLEDIIG [SMC4] | 3.47 ± 0.091 | 3.31 ± 0.075 | 3.15 ± 0.079 | 3.54 ± 0.1
34 | MTLLTDSLRKLYVDSES [MTW1] | 1.45 ± 0.078 | 1.79 ± 0.11 | 1.65 ± 0.11 | 1.59 ± 0.077
35 | KSTTPYVSALKRINKFL [POP7] | 2.04 ± 0.047 | 1.55 ± 0.036 | 2 ± 0.067 | 1.63 ± 0.034
36 | MLLANISVARKIYDAFP [DIS3] | 1.69 ± 0.04 | 1.91 ± 0.041 | 2 ± 0.093 | 1.73 ± 0.041
37 | KSLHEMNERDWRILKED [PRP28] | 3.4 ± 0.19 | 3.05 ± 0.2 | 3.33 ± 0.072 | 3.01 ± 0.23
38 | PDENKTRVRLPSGAKKV [RPL2A] | 3.12 ± 0.075 | 2.96 ± 0.079 | 3.1 ± 0.037 | 3.08 ± 0.05
39 | AEDLTIAAKTHILRISF [SIN4] | 2.36 ± 0.12 | 3.02 ± 0.09 | 2.85 ± 0.085 | 
40 | DFRTRYIDIRTNNVLRK [MTW1] | 2.45 ± 0.087 | 2.86 ± 0.21 | 2.43 ± 0.27 | 2.66 ± 0.14
41 | KLLLLRINSTDEDLHEF [SRB8] | 2.61 ± 0.2 | 3.06 ± 0.16 | 2.94 ± 0.18 | 3.24 ± 0.27
42 | IPQSQQVPQVRSMSGQP [SNF5] | 2.52 ± 0.05 | 2.55 ± 0.047 | 2.5 ± 0.047 | 2.7 ± 0.039
43 | QAKLKKNVETLEEKILA [SMC4] | 3.09 ± 0.08 | 2.98 ± 0.077 | 3.13 ± 0.077 | 3.13 ± 0.066
44 | KKMGVPYAIIKGKARLG [RPL8B] | 2.15 ± 0.15 | 2.12 ± 0.15 | 2.11 ± 0.17 | 3.41 ± 0.28
45 | SSTKPPGSVNSAAKYKD [NUT1] | 2.68 ± 0.064 | 2.64 ± 0.061 | 2.53 ± 0.1 | 2.93 ± 0.065
46 | IIKMTIPYAAKLLFQEL [RET1] | 2.18 ± 0.1 | 2.08 ± 0.12 | 1.75 ± 0.22 | 1.9 ± 0.073
47 | KNDSAEVRQETQPKAEA [NUT1] | 3.35 ± 0.15 | 3.26 ± 0.11 | 3.36 ± 0.055 | 3.38 ± 0.083
48 | DQRDELLEQKKSIINSQ [ITC1] | 3.08 ± 0.085 | 3.1 ± 0.075 | 3.11 ± 0.062 | 3.19 ± 0.068
49 | IPRTFRTPVPSTLMPGG [SNF5] | 2.68 ± 0.066 | 2.18 ± 0.05 | 2.44 ± 0.045 | 2.65 ± 0.048
50 | FQAQQAQQAQQAQQAQQ [SNF2] | 2.86 ± 0.052 | 3 ± 0.046 | 2.85 ± 0.035 | 2.73 ± 0.035
51 | MQKPVPFVPVLDRRFEI [FAS1] | 1.98 ± 0.034 | 1.95 ± 0.03 | 1.82 ± 0.043 | 1.92 ± 0.028
